This note sets out measurements from PMC3888430, “Sorcin Links Calcium Signaling to Vesicle Trafficking, Regulates Polo-Like Kinase 1 and Is Necessary for Mitosis” (PLoS ONE, 2014).

Assay in all cases: peptide or protein array; ProtoArray human protein microarray (proteins arrayed in duplicate on nitrocellulose coated glass slide, native conditions) probed with 1 µM AlexaFluor 532-A2C sorcin in the presence of either 1 mM EDTA or 1 mM CaCl2
Holding throughout (conditions): both partners purified

In experiment [1] the target is T1, CSNK2A2, human, on ProtoArray (human, UniProt P19784 1-350).
T1 construct: CSNK2A2 (casein kinase II subunit alpha'), human, full length protein of the ProtoArray; source: bought: ProtoArray human protein microarray (Life technologies), individually purified and arrayed

Experiment [2] deals with T2, Polo-like kinase 1 (PLK1), human, on ProtoArray (human, UniProt P53350 1-603).
T2 construct: Polo-like kinase 1, human, full length protein of the ProtoArray; In the functional row this id stands for purified recombinant PLK1 bought from Cell Signaling Technology (#7728); source: bought: ProtoArray human protein microarray (Life technologies), individually purified and arrayed

Experiment [3] has as its target T3, Annexin 11, human, on ProtoArray (human, UniProt P50995 1-505).
T3 construct: Annexin 11, human, full length protein of the ProtoArray; source: bought: ProtoArray human protein microarray (Life technologies), individually purified and arrayed

Experiment [4] concerns the target T4, Aurora A kinase, human, on ProtoArray (human, UniProt O14965 1-403).
T4 construct: Aurora A kinase, human, full length protein of the ProtoArray; source: bought: ProtoArray human protein microarray (Life technologies), individually purified and arrayed
T4 sequence (looked up): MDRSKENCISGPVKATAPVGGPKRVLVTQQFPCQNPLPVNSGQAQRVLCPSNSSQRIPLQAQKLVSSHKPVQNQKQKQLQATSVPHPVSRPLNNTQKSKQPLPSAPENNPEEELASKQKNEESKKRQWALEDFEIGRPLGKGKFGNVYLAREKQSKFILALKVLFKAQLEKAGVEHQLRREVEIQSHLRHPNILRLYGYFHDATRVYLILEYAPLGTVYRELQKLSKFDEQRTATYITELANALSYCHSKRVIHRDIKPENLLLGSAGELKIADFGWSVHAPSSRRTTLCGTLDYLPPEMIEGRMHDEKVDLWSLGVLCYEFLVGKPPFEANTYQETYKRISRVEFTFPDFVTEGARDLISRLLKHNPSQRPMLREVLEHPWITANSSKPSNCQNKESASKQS

Experiment [5] has as its target T5, CSNK2A1, human, on ProtoArray (human, UniProt P68400 1-391).
T5 construct: CSNK2A1 (casein kinase II subunit alpha), human, full length protein of the ProtoArray; source: bought: ProtoArray human protein microarray (Life technologies), individually purified and arrayed

The target of experiment [6] is T6, Aurora B kinase, human, on ProtoArray (human, UniProt Q96GD4 1-344).
T6 construct: Aurora B kinase, human, full length protein of the ProtoArray; source: bought: ProtoArray human protein microarray (Life technologies), individually purified and arrayed
T6 sequence (Q96GD4 whole entry): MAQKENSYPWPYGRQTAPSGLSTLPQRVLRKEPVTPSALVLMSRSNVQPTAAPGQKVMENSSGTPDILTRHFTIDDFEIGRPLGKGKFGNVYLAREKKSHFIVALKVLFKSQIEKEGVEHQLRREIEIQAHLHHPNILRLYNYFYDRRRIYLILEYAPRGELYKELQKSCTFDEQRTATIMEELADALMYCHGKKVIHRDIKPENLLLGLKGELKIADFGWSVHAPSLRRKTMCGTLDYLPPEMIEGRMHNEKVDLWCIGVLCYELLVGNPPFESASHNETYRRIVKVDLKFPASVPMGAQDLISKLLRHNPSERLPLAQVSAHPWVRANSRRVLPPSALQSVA

T2 sequence (P53350 whole entry): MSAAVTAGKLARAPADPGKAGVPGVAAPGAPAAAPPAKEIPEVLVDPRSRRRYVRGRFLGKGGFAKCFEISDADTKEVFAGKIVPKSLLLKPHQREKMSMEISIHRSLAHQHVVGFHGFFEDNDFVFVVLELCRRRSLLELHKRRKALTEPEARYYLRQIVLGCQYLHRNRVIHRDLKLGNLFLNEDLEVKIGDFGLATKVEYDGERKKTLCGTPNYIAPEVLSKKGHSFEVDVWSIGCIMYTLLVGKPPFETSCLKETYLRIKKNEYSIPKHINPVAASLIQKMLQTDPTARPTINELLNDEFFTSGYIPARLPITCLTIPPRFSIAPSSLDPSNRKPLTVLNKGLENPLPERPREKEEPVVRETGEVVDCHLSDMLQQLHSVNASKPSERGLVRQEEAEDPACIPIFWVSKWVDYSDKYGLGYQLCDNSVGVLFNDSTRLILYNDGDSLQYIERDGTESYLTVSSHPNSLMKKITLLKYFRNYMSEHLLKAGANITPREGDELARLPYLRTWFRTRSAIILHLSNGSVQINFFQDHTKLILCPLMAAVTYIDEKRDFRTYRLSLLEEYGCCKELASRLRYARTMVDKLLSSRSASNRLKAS
T3 sequence (P50995 whole entry): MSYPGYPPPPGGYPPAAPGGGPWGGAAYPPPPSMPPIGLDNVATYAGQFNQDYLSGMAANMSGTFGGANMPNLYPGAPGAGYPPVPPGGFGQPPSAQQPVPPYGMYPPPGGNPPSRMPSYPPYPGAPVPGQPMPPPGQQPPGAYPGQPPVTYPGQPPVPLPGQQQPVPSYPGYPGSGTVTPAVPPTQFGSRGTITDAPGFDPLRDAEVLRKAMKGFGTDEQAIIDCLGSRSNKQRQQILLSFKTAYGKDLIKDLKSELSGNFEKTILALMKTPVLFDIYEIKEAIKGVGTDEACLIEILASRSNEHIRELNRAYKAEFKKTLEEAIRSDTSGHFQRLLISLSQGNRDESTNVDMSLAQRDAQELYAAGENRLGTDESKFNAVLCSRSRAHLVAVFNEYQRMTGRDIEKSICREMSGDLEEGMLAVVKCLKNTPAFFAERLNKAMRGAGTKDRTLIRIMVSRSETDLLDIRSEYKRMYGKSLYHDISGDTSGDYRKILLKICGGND
T1 sequence (P19784 whole entry): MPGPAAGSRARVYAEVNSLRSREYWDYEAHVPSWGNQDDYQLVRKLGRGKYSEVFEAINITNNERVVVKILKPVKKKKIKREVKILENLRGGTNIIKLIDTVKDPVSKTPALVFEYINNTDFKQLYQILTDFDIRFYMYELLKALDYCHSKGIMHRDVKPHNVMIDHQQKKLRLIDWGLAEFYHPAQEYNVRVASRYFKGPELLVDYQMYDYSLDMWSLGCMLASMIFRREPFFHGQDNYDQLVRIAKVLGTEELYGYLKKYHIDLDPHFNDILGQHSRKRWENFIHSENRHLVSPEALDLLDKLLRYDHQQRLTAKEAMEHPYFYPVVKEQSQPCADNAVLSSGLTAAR
T5 sequence (P68400 whole entry): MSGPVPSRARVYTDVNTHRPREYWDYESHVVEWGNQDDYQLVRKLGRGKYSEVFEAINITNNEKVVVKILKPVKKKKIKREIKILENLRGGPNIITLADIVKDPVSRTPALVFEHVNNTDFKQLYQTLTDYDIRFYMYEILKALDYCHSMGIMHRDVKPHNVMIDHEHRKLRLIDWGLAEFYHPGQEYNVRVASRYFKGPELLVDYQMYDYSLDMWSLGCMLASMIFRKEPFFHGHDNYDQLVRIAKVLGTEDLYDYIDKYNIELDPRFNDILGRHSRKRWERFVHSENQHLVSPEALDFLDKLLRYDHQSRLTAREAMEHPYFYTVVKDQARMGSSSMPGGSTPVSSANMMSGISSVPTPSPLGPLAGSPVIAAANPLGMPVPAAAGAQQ

B1: AlexaFluor 532-A2C sorcin (natural protein, human)
chain: MCYPGHPGAGGGYYPGGYGGAPGGPAFPGQTQDPLYGYFAAVAGQDGQIDADELQRCLTQSGIAGGYKPFNLETCRLMVSMLDRDMSGTMGFNEFKELWAVLNGWRQHFISFDTDRSGTVDPQELQKALTTMGFRLSPQAVNSIAKRYSTNGKITFDDYIACCVKLRALTDSFRRRDTAQQGVVNFPYDDFIQCVMSV
modifications: AlexaFluor 532 C5-maleimide on thiol groups (A2C mutant made for the conjugation)
notes: In the functional row this id stands for unlabelled human wt sorcin (HS) from the same expression system; also called A2C-sorcin-AlexaFluor 532 maleimide; source: E. coli BL21(DE3), purified according to Meyers et al; labelled with AlexaFluor 532 C5-maleimide
Take B1: the binding result in experiment [1], in experiment [3], in experiment [4], in experiment [5] and in experiment [6] was “binds” throughout. Besides, the “fold increase of the interaction with 1 mM calcium against EDTA” value in experiment [2] came out at 1.5 fold.
